Data on two molecules can be found in patent US20240010714A1 (MBRACE THERAPEUTICS, published 2024).

Common to all, as to test: alanine scan, high-throughput flow cytometry
Experiment [1] addresses T1, GRP78 alanine scan variant R261A (human, UniProt P11021 19-654).
T1 construct: Member of the GRP78 alanine scan library
How it is done: (§1) To characterize the binding properties of the antibodies described in Example 1 for GRP78, epitope mapping analysis was carried out by alanine scan mutagenesis. An alanine scan library of GRP78 was constructed. Each anti-GRP78 antibody was then screened for binding to each individual GRP78 variant, allowing identification of the target protein residues involved in antibody binding.
(§2) Binding of each test antibody to each GRP78 variant in the alanine scanning library was determined by high-throughput flow cytometry under high stringency conditions (e.g., increased pH, increased salinity, increased temperature and/or increased wash time). Also included in the experiment was a commercially-available monoclonal antibody, 1H11-1H7, which was verified to bind to WT GFR78 on cells and thus determined to be a suitable positive control under these conditions (Thermo Fisher Scientific, Waltham, MA). Antibody binding to each of the GRP78 variant as measured by the fluorescence signal (raw fluorescence data minus the background), was normalized to its binding to the wildtype (WT) GRP78. For each GRP78 variant, such normalized binding to the test antibodies was plotted relative to that to the control antibody.

Experiment [2] addresses T2, GRP78 alanine scan variant H265A (human, UniProt P11021 19-654).
T2 construct: Member of the GRP78 alanine scan library
How it is done: as §1, §2

Experiment [3] has as its target T3, GRP78 alanine scan variant E329A (human, UniProt P11021 19-654).
T3 construct: Member of the GRP78 alanine scan library
How it is done:
as §1, §2

The target in experiment [4] is T4, GRP78 alanine scan variant R279A (human, UniProt P11021 19-654).
T4 construct: Member of the GRP78 alanine scan library
T4 sequence (P11021 19-654 R279A limits assumed): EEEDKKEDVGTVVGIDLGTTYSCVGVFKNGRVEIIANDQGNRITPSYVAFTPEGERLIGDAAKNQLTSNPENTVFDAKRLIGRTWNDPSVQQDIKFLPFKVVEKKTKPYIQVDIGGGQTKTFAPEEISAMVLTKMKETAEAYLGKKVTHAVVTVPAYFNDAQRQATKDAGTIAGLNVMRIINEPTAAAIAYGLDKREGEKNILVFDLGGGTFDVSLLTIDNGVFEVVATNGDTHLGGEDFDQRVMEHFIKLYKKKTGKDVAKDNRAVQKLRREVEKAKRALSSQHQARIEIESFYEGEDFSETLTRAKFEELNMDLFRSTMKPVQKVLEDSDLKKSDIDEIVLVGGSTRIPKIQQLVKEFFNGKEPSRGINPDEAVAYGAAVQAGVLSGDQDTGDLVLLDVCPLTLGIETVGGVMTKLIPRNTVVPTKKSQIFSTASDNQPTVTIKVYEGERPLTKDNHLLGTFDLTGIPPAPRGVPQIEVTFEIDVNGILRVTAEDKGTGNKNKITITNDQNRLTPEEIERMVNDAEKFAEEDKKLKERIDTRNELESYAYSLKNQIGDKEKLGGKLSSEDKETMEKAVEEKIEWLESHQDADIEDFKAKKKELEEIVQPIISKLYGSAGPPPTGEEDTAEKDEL
The protocol: as §1, §2

T1 sequence (P11021 19-654 R261A limits assumed): as the sequence (P11021 19-654 R279A limits assumed) above, with R243A, A261R counted along it
T2 sequence (P11021 19-654 H265A limits assumed): as the sequence (P11021 19-654 R279A limits assumed) above, with H247A, A261R counted along it
T3 sequence (P11021 19-654 E329A limits assumed): as the sequence (P11021 19-654 R279A limits assumed) above, with A261R, E311A counted along it

B1: anti-GRP78 antibody clone B4 (antibody, IgG1, V domains shown)
VH: QVRLQESGPGLVKPSQTLSLTCTVSGGSISSGGYYWSWIRQHPGKGLEWIGYIYYSGSTYYNPSLESRVTISVDTSKNQFSLKLSSVTAADTAVYYCARYSSIDAFEIWGQGTMVTVSS
VL: SYVLTQPPSVSVAPGKTATITCGGDDIGSKSVHWYQQKPGQAPVLVVYDDGDRPSGIPERFSGSNSGNTATLAISRVEAGDEADYYCQVWDSSSDQYVFGSGTKLTVL
notes: Fully human mAb formatted as full-length IgG1; also called B4 mAb
In the case of B1, the “binding normalized to wildtype (WT) GRP78” value in experiment [1], in experiment [2] and in experiment [3] was < 20% each time.

B2: anti-GRP78 antibody clone F6 (antibody, IgG1, V domains shown)
VH: QVQLQQSGPGLVKPPQTLSLTCAISGDSVSSNSAAWNWIRQSPSRGLEWLGRTYYRSKWYNDYAVSVKSRITINPDTSKNQFSLQLNSVTPEDTAVYYCARDPYYYDSSGYYYFDAFDIWGQGTMVTVSS
VL: SYELTQPHSVSVAPGQTARITCGGDNIGSKSVHWYQQRPGQAPVLVVYDDSDRPSGIPERFSGSNSENTATLTISGVEAGDEADYYCQVWDSTSHHVVFGGGTKLTVL
notes: Fully human mAb formatted as full-length IgG1; also called F6 mAb; Anti-GRP78 (F6)
As for B2, the “binding normalized to wildtype (WT) GRP78” value in experiment [4] and in experiment [1] was < 20% throughout.
